{"source": "paper PMC9020777", "test_in_all_cases": "FRET or BRET", "key": {"mCerulean3-BCL-2 (human)": {"target": "mCerulean3-BCL-2 (human) (UniProt P10415)", "sequence (P10415 whole entry)": "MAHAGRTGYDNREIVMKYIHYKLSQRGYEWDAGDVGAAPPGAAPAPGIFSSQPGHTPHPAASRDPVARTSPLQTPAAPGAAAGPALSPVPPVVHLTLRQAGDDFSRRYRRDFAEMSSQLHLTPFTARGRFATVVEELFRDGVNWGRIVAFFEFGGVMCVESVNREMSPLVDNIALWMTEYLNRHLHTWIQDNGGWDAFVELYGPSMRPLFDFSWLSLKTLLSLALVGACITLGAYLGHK"}, "mCerulean3-BCL-W (mouse)": {"target": "mCerulean3-BCL-W (mouse) (UniProt P70345)", "sequence (P70345 whole entry)": "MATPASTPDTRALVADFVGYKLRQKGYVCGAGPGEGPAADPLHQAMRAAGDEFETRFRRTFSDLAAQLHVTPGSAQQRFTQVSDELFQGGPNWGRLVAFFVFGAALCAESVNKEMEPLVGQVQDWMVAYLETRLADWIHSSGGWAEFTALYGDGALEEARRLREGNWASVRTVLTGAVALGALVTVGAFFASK"}, "[1]": {"target": "mCerulean3-BCL-XL (human) (UniProt Q07817)", "sequence (Q07817 whole entry)": "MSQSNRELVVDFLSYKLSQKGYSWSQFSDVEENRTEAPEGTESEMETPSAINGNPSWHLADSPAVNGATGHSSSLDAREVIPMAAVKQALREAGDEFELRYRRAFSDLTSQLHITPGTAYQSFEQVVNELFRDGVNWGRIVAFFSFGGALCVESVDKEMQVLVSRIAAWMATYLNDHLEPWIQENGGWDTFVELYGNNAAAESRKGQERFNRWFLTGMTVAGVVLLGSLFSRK"}}}
{"substance": "Venus-tBID (natural protein)", "values": [{"measurement": "Kd", "setting": "mCerulean3-BCL-2 (human)", "value": 3, "unit": "µM"}, {"measurement": "Kd", "setting": "mCerulean3-BCL-W (mouse)", "value": 6, "unit": "µM"}, {"measurement": "Kd", "setting": "[1]", "value": 5, "unit": "µM"}]}
